Assay results: US10544159B2, “Artemisinin derivatives, methods for their preparation and their use as antimalarial agents” (priority 2012, dated 2020)
“And” between values parts separate entries of the source, which are not always exact repeats. Equal entries are not always repeated.

What was measured:
[1] = Total turnovers and regio-/stereoselectivity of P450 variants in artemisinin hydroxylation (analytical scale); format: biochemical; settings: for regioselectivity toward 6a-hydroxylation: artemisinin as substrate; for Product distribution (%) 4: share of 6a-hydroxy-ART (4); for Product distribution (%) 4 / Product distribution (%) 3 / Product distribution (%) 2: 0.5 mM artemisinin, 0.5-1 μM P450, 12 hours; for Product distribution (%) 3: share of 7(R)-hydroxy-ART (3); for Product distribution (%) 2: share of 7(S)-hydroxy-ART (2); for TTN: total turnovers on artemisinin, NADPH cofactor regeneration system, analytical scale
Procedure: Determination of Total Turnovers and Regio- and Stereoselectivity of the P450 Variants.
After 12 hours, 9-fluorenone was added to the mixtures as internal standard. The hydroxylation products were functionalized with benzoyl chloride followed by HPLC analysis. TTN values were calculated based on the total amount of hydroxylated products in the reactions as quantified based on the calibration curves generated using purified 2-4. The enzyme regio- and stereoselectivity was determined based on the area under the curve of the chromatographic peaks corresponding to the hydroxylation products 2, 3, and 4. Mean and standard deviation values reported for P450 variants in Table 1 were calculated from experiments performed at least in triplicate.

[2] = format: biochemical; settings: 250 μM artemisinin, rates measured over initial 30 seconds
Procedure: Measurement of Product Formation Rates and Coupling Efficiency.
Initial product formation rates were measured from 1 mL-scale reactions containing 250 μM artemisinin, 0.1-0.5 μM purified P450, and 200 μM NADPH in potassium phosphate buffer (50 mM, pH 8.0) at room temperature. After 30 seconds, the samples were extracted with dichloromethane and subjected to benzoyl chloride derivatization followed by HPLC analysis as described above. Cofactor oxidation rate in the presence of artemisinin was measured by monitoring NADPH depletion at 340 nm (ε=6.22 mM^−1 cm^−1) using 0.1 μM purified P450, 250 μM artemisinin, and 200 μM NADPH. Coupling efficiency was calculated from the ratio between the initial product formation rate and the initial NADPH oxidation rate. Reported mean and standard deviation values were calculated from experiments performed at least in triplicate.

[3] = KD for artemisinin binding to P450 variants (heme spin-shift titration); settings: binding of artemisinin to 3 μM purified P450, pH 8.0
Procedure: Determination of KD Values for Artemisinin Binding.
Binding experiments were performed using 3 μM purified P450 in potassium phosphate buffer (50 mM, pH 8.0) by titrating increasing amounts of artemisinin (5 μM to 1 mM) from an ethanol stock solution (50 mM). At each concentration, a difference spectrum from 350 to 500 nm was recorded and binding curves were generated by plotting the change in absorbance at 390 nm and 420 nm corresponding to the high-spin and low-spin state of the enzyme, respectively, against the artemisinin concentration. KD values were calculated using Sigma Plot via non-linear fitting of the experimental binding curves to an equation describing a standard 1:1 binding interaction. Reported mean and standard deviation values were calculated from experiments performed at least in triplicate.

Molecule | regioselectivity toward 6a-hydroxylation [1] | Product distribution (%) 4 [1] | Product distribution (%) 3 [1] | Product distribution (%) 2 [1] | Product formation rate [2] | Kd [3] | TTN [1]
FL#62: CYP102A1-derived engineered P450 variant (SEQ ID NO. 8) (protein) MTIKEMPQPKTFGELKNLPLLNTDKPVQALMKIADELGEIFKFEAPGRVTRYLSSQRLIKEACDESRFDKNLSQALKFARDSVGDGLATSWTHEKNWKKAHNILLPSFSQQAMKGYHAMMVDIAVQLVQKWERLNADEHIEVSEDMTRLTLDTIGLCGFNYRFNSFYRDQPHPFIISMVRTLDEVMNKLQRANPDDPVYDENKRQCQEDIKVMNDLVDKIIADRKARGEQSDDLLTQMLNGKDPETGEPLDDGNISYQIITFLIAGHETTSGLLSFALYFLVKNPHVLQKVAEEAARVLVDPVPSYKQVKQLKYVGMVLNEALRLWPTAPAFSLYAKEDTVLGGEYPLEKGDEVMVLIPQLHRDKTIWGDDVEEFRPERFENPSAIPQHAFKPFGNGQRACIGQQFALHEATLVLGMMLKHFDFEDHTNYELDIKETLTLKPEGFVVKAKSKKIPLGGIPSPSTEQSAKKVRKKAENAHNTPLLVLYGSNMGTAEGTARDLADIAMSKGFAPQVATLDSHAGNLPREGAVLIVTASYNGHPPDNAKQFVDWLDQASADEVKGVRYSVFGCGDKNWATTYQKVPAFIDETLAAKGAENIADRGEADASDDFEGTYEEWREHMWSDVAAYFNLDIENSEDNKSTLSLQFVDSAADMPLAKMHGAFSTNVVASKELQQPGSARSTRHLEIELPKEASYQEGDHLGVIPRNYEGIVNRVTARFGLDASQQIRLEAEEEKLAHLPLAKTVSVEELLQYVELQDPVTRTQLRAMAAKTVCPPHKVELEALLEKQAYKEQVLAKRLTMLELLEKYPACEMKFSEFIALLPSIRPRYYSISSSPRVDEKQASITVSVVSGEAWSGYGEYKGIASNYLAELQEGDTITCFISTPQSEFTLPKDPETPLIMVGPGTGVAPFRGFVQARKQLKEQGQSLGEAHLYFGCRSPHEDYLYQEELENAQSEGIITLHTAFSRMPNQPKTYVQHVMEQDGKKLIELLDQGAHFYICGDGSQMAPAVEATLMKSYADVHQVSEADARLWLQQLEEKGRYAKDVWAG | 7% | 7% | 10% | 83% | 316 ± 20 Mole product per mole P450 per minute | 29 ± 5 µM | 
V-H2: FL#62-derived P450 variant (SEQ ID NO. 10) (protein) MTIKEMPQPKTFGELKNLPLLNTDKPVQALMKIADELGEIFKFEAPGRVTRYLSSQRLIKEACDESRFDKNLSQALKFSRDIAGDGLATSWTHEKNWKKAHNILLPSFSQQAMKGYHAMMVDIAVQLVQKWERLNADEHIEVSEDMTRLTLDTIGLCGFNYRFNSFYRDQPHPFIISMVRTLDEVMNKLQRANPDDPVYDENKRQCQEDIKVMNDLVDKIIADRKARGEQSDDLLTQMLNGKDPETGEPLDDGNISYQIITFLIAGHETTSGLLSFALYFLVKNPHVLQKVAEEAARVLVDPVPSYKQVKQLKYVGMVLNEALRLWPTAPAFSLYAKEDTVLGGEYPLEKGDEVMVLIPQLHRDKTIWGDDVEEFRPERFENPSAIPQHAFKPFGNGQRACIGQQFALHEATLVLGMMLKHFDFEDHTNYELDIKETLTLKPEGFVVKAKSKKIPLGGIPSPSTEQSAKKVRKKAENAHNTPLLVLYGSNMGTAEGTARDLADIAMSKGFAPQVATLDSHAGNLPREGAVLIVTASYNGHPPDNAKQFVDWLDQASADEVKGVRYSVFGCGDKNWATTYQKVPAFIDETLAAKGAENIADRGEADASDDFEGTYEEWREHMWSDVAAYFNLDIENSEDNKSTLSLQFVDSAADMPLAKMHGAFSTNVVASKELQQPGSARSTRHLEIELPKEASYQEGDHLGVIPRNYEGIVNRVTARFGLDASQQIRLEAEEEKLAHLPLAKTVSVEELLQYVELQDPVTRTQLRAMAAKTVCPPHKVELEALLEKQAYKEQVLAKRLTMLELLEKYPACEMKFSEFIALLPSIRPRYYSISSSPRVDEKQASITVSVVSGEAWSGYGEYKGIASNYLAELQEGDTITCFISTPQSEFTLPKDPETPLIMVGPGTGVAPFRGFVQARKQLKEQGQSLGEAHLYFGCRSPHEDYLYQEELENAQSEGIITLHTAFSRMPNQPKTYVQHVMEQDGKKLIELLDQGAHFYICGDGSQMAPAVEATLMKSYADVHQVSEADARLWLQQLEEKGRYAKDVWAG |  | 4% | 0% | 96% | 41 ± 2 Mole product per mole P450 per minute | 45 ± 10 µM | 434 ± 21
X-F11: II-E2-derived P450 variant (SEQ ID NO. 15), 6a-hydroxylating (protein) MTIKEMPQPKTFGELKNLPLLNTDKPVQALMKIADELGEIFKFEAPGRVTRYLSSQRLIKEACDESRFDKNLSQTLKFNRDFAGDGLATSWTHEKNWKKAHNILLPSFSQQAMKGYHAMMVDIAVQLVQKWERLNADEHIEVSEDMTRLTLDTIGLCGFNYRFNSFYRDQPHPFIISMVRALDESMNKLQRANPDDPVYDENKRQCQEDIKVMNDLVDKIIADRKARGEQSDDLLTQMLNGKDPETGEPLDDGNISYQIITFLIAGHETTSGLLSFALYFLVKNPHVLQKVAEEAARVLVDPVPSYKQVKQLKYVGMVLNEALRLWPTAPAFSLYAKEDTVLGGEYPLEKGDEVMVLIPQLHRDKTIWGDDVEEFRPERFENPSAIPQHAFKPFGNGQRACIGQQFALHEATLVLGMMLKHFDFEDHTNYELDIKETLTLKPEGFVVKAKSKKIPLGGIPSPSTEQSAKKVRKKAENAHNTPLLVLYGSNMGTAEGTARDLADIAMSKGFAPQVATLDSHAGNLPREGAVLIVTASYNGHPPDNAKQFVDWLDQASADEVKGVRYSVFGCGDKNWATTYQKVPAFIDETLAAKGAENIADRGEADASDDFEGTYEEWREHMWSDVAAYFNLDIENSEDNKSTLSLQFVDSAADMPLAKMHGAFSTNVVASKELQQPGSARSTRHLEIELPKEASYQEGDHLGVIPRNYEGIVNRVTARFGLDASQQIRLEAEEEKLAHLPLAKTVSVEELLQYVELQDPVTRTQLRAMAAKTVCPPHKVELEALLEKQAYKEQVLAKRLTMLELLEKYPACEMKFSEFIALLPSIRPRYYSISSSPRVDEKQASITVSVVSGEAWSGYGEYKGIASNYLAELQEGDTITCFISTPQSEFTLPKDPETPLIMVGPGTGVAPFRGFVQARKQLKEQGQSLGEAHLYFGCRSPHEDYLYQEELENAQSEGIITLHTAFSRMPNQPKTYVQHVMEQDGKKLIELLDQGAHFYICGDGSQMAPAVEATLMKSYADVHQVSEADARLWLQQLEEKGRYAKDVWAG | 92% | 92% | 8% | 0% | 56 ± 2 Mole product per mole P450 per minute | 234 ± 29 µM | 376 ± 19
X-E12: II-E2-derived P450 variant (SEQ ID NO. 14), 6a-hydroxylating (protein) MTIKEMPQPKTFGELKNLPLLNTDKPVQALMKIADELGEIFKFEAPGRVTRYLSSQRLIKEACDESRFDKNLSQVLKFNRDFAGDGLATSWTHEKNWKKAHNILLPSFSQQAMKGYHAMMVDIAVQLVQKWERLNADEHIEVSEDMTRLTLDTIGLCGFNYRFNSFYRDQPHPFIISMVRTADETMNKLQRANPDDPVYDENKRQCQEDIKVMNDLVDKIIADRKARGEQSDDLLTQMLNGKDPETGEPLDDGNISYQIITFLIAGHETTSGLLSFALYFLVKNPHVLQKVAEEAARVLVDPVPSYKQVKQLKYVGMVLNEALRLWPTAPAFSLYAKEDTVLGGEYPLEKGDEVMVLIPQLHRDKTIWGDDVEEFRPERFENPSAIPQHAFKPFGNGQRACIGQQFALHEATLVLGMMLKHFDFEDHTNYELDIKETLTLKPEGFVVKAKSKKIPLGGIPSPSTEQSAKKVRKKAENAHNTPLLVLYGSNMGTAEGTARDLADIAMSKGFAPQVATLDSHAGNLPREGAVLIVTASYNGHPPDNAKQFVDWLDQASADEVKGVRYSVFGCGDKNWATTYQKVPAFIDETLAAKGAENIADRGEADASDDFEGTYEEWREHMWSDVAAYFNLDIENSEDNKSTLSLQFVDSAADMPLAKMHGAFSTNVVASKELQQPGSARSTRHLEIELPKEASYQEGDHLGVIPRNYEGIVNRVTARFGLDASQQIRLEAEEEKLAHLPLAKTVSVEELLQYVELQDPVTRTQLRAMAAKTVCPPHKVELEALLEKQAYKEQVLAKRLTMLELLEKYPACEMKFSEFIALLPSIRPRYYSISSSPRVDEKQASITVSVVSGEAWSGYGEYKGIASNYLAELQEGDTITCFISTPQSEFTLPKDPETPLIMVGPGTGVAPFRGFVQARKQLKEQGQSLGEAHLYFGCRSPHEDYLYQEELENAQSEGIITLHTAFSRMPNQPKTYVQHVMEQDGKKLIELLDQGAHFYICGDGSQMAPAVEATLMKSYADVHQVSEADARLWLQQLEEKGRYAKDVWAG | 94% | 94% | 2% | 4% | 72 ± 3 Mole product per mole P450 per minute | 300 ± 24 µM | 113 and 113 ± 12
